Seven molecules from article PMC10092738, “Structural insights into the mechanism of adaptive ribosomal modification by Pseudomonas RimK” (Proteins, 2022) can be followed below.

Usually stoichiometry N stands for the number of molecules, sites or subunits per partner or assembly. By Km is commonly meant the concentration of substrate that gives half-maximal velocity.

The target of series [1] is T1, RimKPA (Pseudomonas aeruginosa, UniProt Q9HTZ2).
T1 construct: gene rimK; full ORF in pET29a, C-terminal hexahistidine tag, E. coli BL21 (DE3) pLysS; tetramer
T1 sequence (Q9HTZ2 1-301): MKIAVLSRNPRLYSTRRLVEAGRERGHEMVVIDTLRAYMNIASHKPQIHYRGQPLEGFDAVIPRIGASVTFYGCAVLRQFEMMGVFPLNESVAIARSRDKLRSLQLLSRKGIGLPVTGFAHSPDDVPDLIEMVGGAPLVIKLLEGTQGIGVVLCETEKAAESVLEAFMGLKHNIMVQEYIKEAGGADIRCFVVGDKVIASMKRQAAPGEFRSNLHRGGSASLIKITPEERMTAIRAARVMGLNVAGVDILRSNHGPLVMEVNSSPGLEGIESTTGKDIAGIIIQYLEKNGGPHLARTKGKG
The series can be described thus: X-ray crystal structure, […] A. The settings on record: ATP binding site; co-purified from expression host; weak density, interpreted as ADP.

The next series addresses T2, RimKPS (Pseudomonas syringae group genomosp. 3, UniProt Q88AZ9).
T2 construct: gene rimK; full ORF in pET29a, C-terminal hexahistidine tag, E. coli BL21 (DE3) pLysS; tetramer
T2 sequence (Q88AZ9 1-301): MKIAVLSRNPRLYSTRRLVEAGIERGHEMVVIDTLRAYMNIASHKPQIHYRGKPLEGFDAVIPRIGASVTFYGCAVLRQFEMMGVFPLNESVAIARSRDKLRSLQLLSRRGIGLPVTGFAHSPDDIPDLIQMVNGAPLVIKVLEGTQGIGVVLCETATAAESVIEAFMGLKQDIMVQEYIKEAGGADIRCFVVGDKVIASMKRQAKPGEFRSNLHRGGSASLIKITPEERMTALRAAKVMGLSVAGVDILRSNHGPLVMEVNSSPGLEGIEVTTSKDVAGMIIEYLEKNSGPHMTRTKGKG
The series can be described thus: PK/LDH-coupled ATPase assay, NADH oxidation at […] nm. Type of series: biochemical. To be noted: activator; 25 uM cdG, 1.5 uM RimK, ATP as substrate; pH 9.0, 20 mM MgSO4, 25 C.

The target in series [2] is T1, RimKPA. The description is as above. Type of series: biochemical. To be noted: activator; 25 uM cdG, 2.5 uM RimK, ATP as substrate; pH 9.0, 20 mM MgSO4, 25 C.
Series [3] deals with P. aeruginosa PAO1 RimK (P. aeruginosa PAO1) (UniProt B7V3U4). The series can be described thus: crystal structure; RimKPA at 17 mg/ml, sitting-drop vapor diffusion at 293 K, 0.2 M potassium sodium tartrate, 0.1 M bis-tris propane pH 7.5, 20% PEG 3350; 2.4 Å, P2(1), eight copies in the asymmetric unit.
In series [4] the target is P. syringae pv. tomato DC3000 RimK (P. syringae pv. tomato DC3000) (UniProt Q88AZ9).
Substrate in series [5]: Nc1ncnc2c1ncn2[C@@H]1O[C@H](COP(=O)(O)OP(=O)(O)OP(=O)(O)O)[C@@H](O)[C@H]1O
Put plainly: purified protein. To be noted: 100 mM Tris-HCl pH 9.0, 20 mM MgSO4, 25 C, 1.5 uM RimK, no RimB.

Series [6] deals with the molecule itself. Put plainly: crystal structure; RimKPS at 3.7 mg/ml, sitting-drop vapor diffusion at 293 K, 0.2 M calcium chloride, 0.1 M HEPES pH 7.0, 20% PEG6000; ATP and cdG in the cryoprotectant; 2.9 Å, P1, 16 copies in the asymmetric unit.
Substrate in series [7]: Nc1ncnc2c1ncn2[C@@H]1O[C@H](COP(=O)(O)OP(=O)(O)OP(=O)(O)O)[C@@H](O)[C@H]1O
The series can be described thus: purified protein. Type of series: biochemical, Pseudomonas fluorescens. The settings on record: 100 mM Tris-HCl pH 9.0, 20 mM MgSO4, 25 C, 1.5 uM RimK, no RimB.

Regarding `Nc1ncnc2c1ncn2[C@@H]1O[C@H](COP(=O)(O)OP(=O)(O)O)[C@@H](O)[C@H]1O` [ADP], the “X-ray crystal structure, 2.4 A” value on RimKPA [1] was “ADP and glutamate, of presumed cellular origin, were resolved in the RimKPA structure”.

Take `Nc1nc2c(ncn2[C@@H]2O[C@@H]3COP(=O)(O)O[C@H]4[C@@H](O)[C@H](n5cnc6c(=O)[nH]c(N)nc65)O[C@@H]4COP(=O)(O)O[C@H]3[C@H]2O)c(=O)[nH]1` [cyclic-di-GMP]: the “PK/LDH-coupled ATPase assay, NADH oxidation at 340 nm” value at RimKPS and at RimKPA [2] was “the addition of cdG stimulated ATPase activity for both proteins” in each case.

Molecule “P. aeruginosa PAO1 RimK (from UniProt B7V3U4 1-301) (enzyme)” gave a stoichiometry N in series [3] of 4.

Consider RimB of P. syringae (enzyme), for which, in series [4], the RimKPS ATPase activity (linked PK/LDH assay) against RimBPS 0–1.2 mM, fitted K m stood at 120 µM and the RimKPS ATPase activity (linked PK/LDH assay) against RimBPS 0–1.2 mM, fitted V max is 692.

B1: RimKPA (Pseudomonas aeruginosa PAO1) (protein)
chain: T1 sequence (Q9HTZ2 1-301)
Regarding B1, in “purified protein [5]” (a separate series in Figure S1 prints K m = 2.1 mM), the Km is 300 µM.

B2: P. syringae pv. tomato DC3000 RimK (enzyme, UniProt Q88AZ9 1-301, looked up)
chain: T2 sequence (Q88AZ9 1-301)
notes: RimK, ATP-dependent glutamate ligase, P. syringae pv. tomato DC3000; open reading frame of rimK cloned into pET29a; Tetramer in the crystal; 16 copies in the asymmetric unit; also called RimKPS; RimKPs; source: E. coli BL21 (DE3) pLysS, purified (His-Trap Excel column)
On to B2, for which the “stoichiometry N” value in series [6] came to 4. The Km in the series “purified protein [5]” (a separate series in Figure S1 prints K m = 1.85 mM) turned out to be 1000 µM.

B3: RimKPF (Pseudomonas [fluorescens] SBW25) (protein)
chain: MKIAVLSRNPRLYSTRRLVEAGVERGHEMVVIDTLRAYMNIASHKPQIHYRGKPLEGFDAVIPRIGASVTFYGCAVLRQFEMMGVFPLNESVAIARSRDKLRSLQLLSRRGIGLPVTGFAHSPDDIPDLIDMVNGAPLVIKVLEGTQGIGVVLCETATAAESVIEAFMGLKQNIMVQEYIKEAGGADIRCFVVGDKVIAAMKRQAKPGEFRSNLHRGGSASLIKITPEERMTALRAAKVMGLSVAGVDILRSNHGPLVMEVNSSPGLEGIETTTGKNVAGIIIEHLEKNGGPNMTRTKGKG
notes: purified recombinant RimK
For B3, the Km in the series “purified protein [7]” was determined as 800 µM.
